# Assay results from patent publication US20200199241A1 (Chugai, published 2020).
# Where a chain is given by its changes, count along the chain named.
# T1: FcγRIIb (human, UniProt P31994 43-217, limits assumed)
# T1 construct: SPR analyte; also called FcγIIB; CD32
# T1 sequence: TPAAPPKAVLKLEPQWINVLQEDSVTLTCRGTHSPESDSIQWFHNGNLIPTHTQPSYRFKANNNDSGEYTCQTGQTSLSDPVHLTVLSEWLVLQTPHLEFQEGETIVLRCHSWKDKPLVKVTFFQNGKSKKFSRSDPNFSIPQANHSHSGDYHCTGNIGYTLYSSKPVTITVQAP
# T2: FcγRIIa type R (human, UniProt P12318 36-217)
# T2 construct: SPR analyte; also called FcγRIIaR; FcγRIIa(R)
# T2 chain: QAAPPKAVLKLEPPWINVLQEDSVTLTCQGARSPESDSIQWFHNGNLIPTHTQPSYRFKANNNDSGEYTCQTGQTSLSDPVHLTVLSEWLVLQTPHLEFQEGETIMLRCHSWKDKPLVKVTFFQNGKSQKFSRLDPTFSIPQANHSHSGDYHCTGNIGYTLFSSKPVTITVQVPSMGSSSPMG
# T3: FcγRIIa type H (human, UniProt P12318 36-217)
# T3 construct: SPR analyte; also called FcγRIIaH
# T3 sequence: T2 chain with R133H
# B1: IL6R-2B253/IL6R-L (antibody, human IgG1)
# heavy: QVQLQESGPGLVKPSETLSLTCAVSGHSISHDHAWSWVRQPPGEGLEWIGFISYSGITNYNPSLQGRVTISRDNSKNTLYLQMNSLRAEDTAVYYCARSLARTTAMDYWGEGTLVTVSSASTKGPSVFPLAPSSKSTSGGTAALGCLVKDYFPEPVTVSWNSGALTSGVHTFPAVLQSSGLYSLSSVVTVPSSSLGTQTYICNVNHKPSNTKVDKKVEPKSCDKTHTCPPCPAPDLLGGDSVFLFPPKPKDTLMISRTPEVTCVVVDVSHEDPEVKFNWYVDGVEVHNAKTKPREEQYNSTYRVVSVLTVLHQDWLNGKEYKCKMSNKALPAPIEKTISKAKGQPREPQVYTLPPSRDELTKNQVSLTCLVKGFYPSDIAVEWESNGQPENNYKTTPPVLDSDGSFFLYSKLTVDKSRWQQGNVFSCSVMHEALHNHYTQESLSLSP
# light: DIQMTQSPSSLSASVGDRVTITCRASQDISSYLNWYQQKPGKAPKLLIYYTSRLHSGVPSRFSGSGSGTDFTFTISSLQPEDIATYYCQQGNTLPYTFGQGTKVEIK
# B2: IL6R-2B261/IL6R-L (antibody, human IgG1)
# heavy: B1 heavy with Y298D, M325V
# light: B1 light
# B3: IL6R-BP083/IL6R-L (antibody, human IgG1)
# heavy: B1 heavy with D235E, Y298D, M325V, A332K
# light: B1 light
# B4: IL6R-BP084/IL6R-L (antibody, human IgG1)
# heavy: B1 heavy with D235E, A332K
# light: B1 light
# B5: IL6R-BP085/IL6R-L (antibody, human IgG1)
# heavy: B1 heavy with D235E, G239D, M325V, A332K
# light: B1 light
# B6: IL6R-BP088/IL6R-L (antibody, human IgG1)
# heavy: B1 heavy with D235E, G239D, M325V, K328A, A332K
# light: B1 light
# B7: IL6R-BP133/IL6R-L (antibody, human IgG1)
# heavy: B1 heavy with L236Y, M325V, A332K
# light: B1 light
# B8: IL6R-BP146/IL6R-L (antibody, human IgG1)
# heavy: B1 heavy with D235E, L236Y, G239D, M325V, K328A
# light: B1 light
# B9: IL6R-BP147/IL6R-L (antibody, human IgG1)
# heavy: B1 heavy with D235E, L236Y, G239D, M325V, K328A, A332K
# light: B1 light
# B10: IL6R-BP182/IL6R-L (antibody, human IgG1)
# heavy: B1 heavy with P273G, Y298D, M325V, A332K
# light: B1 light
# Target: T1, FcγRIIb
# Experiment: ratio of SPR KDs; reference IL6R-B3/IL6R-L
# Excerpt: Furthermore, KD(IIaR)/KD(IIb) and KD(IIaH)/KD(IIb) in the table respectively represent the value obtained by dividing the KD value of each variant for FcγRIIaR by the KD value of each variant for FcγRIIb, and the value obtained by dividing the KD value of each variant for FcγRIIaH by the KD value of each variant for FcγRIIb. KD(IIb) of the parent polypeptide/KD(IIb) of the altered polypeptide refers to the value obtained by dividing the KD value of the parent polypeptide for FcγRIIb by the KD value of each variant for FcγRIIb.
row,Binder,KD(IIb) of the parent polypeptide/KD(IIb) of altered polypeptide
1,B1,7.2
2,B2,3
3,B3,3.9
4,B4,6.1
5,B5,9.6
6,B6,14.3
7,B7,5.6
8,B8,13.7

# Target: T2, FcγRIIa type R
# Experiment: SPR (Biacore), antibody captured, FcγR analyte
row,Binder,Kd [µM]
1,B1,5
2,B4,7.2
3,B5,4.2
4,B6,2.9
5,B8,2.1
6,B9,0.89
7,B10,2.6

# Target: T1, FcγRIIb
# Experiment: SPR (Biacore), antibody captured, FcγR analyte
row,Binder,Kd [µM]
1,B2,1
2,B3,0.79
3,B4,0.5
4,B5,0.32
5,B6,0.22
6,B7,0.56
7,B8,0.23
8,B9,0.066

# Target: T4, FcγRIa (human, UniProt P12314 16-292, limits assumed)
# T4 construct: SPR analyte; also called CD64
# T4 sequence (P12314 16-292 limits assumed): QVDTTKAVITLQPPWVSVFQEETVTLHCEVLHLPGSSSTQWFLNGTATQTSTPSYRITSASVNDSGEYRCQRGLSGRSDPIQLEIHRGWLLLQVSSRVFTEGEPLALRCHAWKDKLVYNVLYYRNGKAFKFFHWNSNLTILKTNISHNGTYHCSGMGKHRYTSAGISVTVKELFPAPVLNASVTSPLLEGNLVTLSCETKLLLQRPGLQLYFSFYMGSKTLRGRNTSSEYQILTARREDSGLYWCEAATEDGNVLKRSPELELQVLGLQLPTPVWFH
# Experiment: SPR (Biacore), antibody captured, FcγR analyte
row,Binder,Kd [µM]
1,B1,0.0014
2,B2,0.009
3,B3,0.038
4,B4,0.007
5,B5,0.29
6,B6,0.39
7,B7,0.13
8,B8,0.074
9,B9,0.14
10,B10,0.01

# Target: T3, FcγRIIa type H
# Experiment: SPR (Biacore), antibody captured, FcγR analyte
row,Binder,Kd [µM]
1,B1,13
2,B2,33
3,B3,44
4,B4,24
5,B5,24
6,B6,23
7,B7,26
8,B8,18
9,B9,5.1
10,B10,28

# Target: T5, FcγRIIIa type V (human, UniProt P08637 17-208, limits assumed)
# T5 construct: SPR analyte; allotype V158 was used here; also called FcγRIIIaV; FcγRIIIa(V)
# T5 sequence (P08637 other isoform, or with tags, fused parts or gaps limits assumed): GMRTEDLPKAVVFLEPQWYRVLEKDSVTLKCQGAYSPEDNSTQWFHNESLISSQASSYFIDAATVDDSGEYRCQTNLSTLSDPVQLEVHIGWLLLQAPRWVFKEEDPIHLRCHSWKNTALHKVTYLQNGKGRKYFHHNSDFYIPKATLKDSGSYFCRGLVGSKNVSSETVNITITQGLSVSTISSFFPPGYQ
# Experiment: SPR (Biacore), antibody captured, FcγR analyte
row,Binder,Kd [µM]
1,B1,50
2,B2,73
3,B3,66
4,B4,67
5,B5,68
6,B6,57
7,B7,62
8,B9,33
9,B10,58
